In assay [1] the target is N-acetyltransferase C-terminal region (CTR) of RmNag (Rhizomucor miehei). Kind of assay: not stated; NTR and CTR 'in solution'; the sentence names no method (it follows the SEC estimate for the full-length protein).
Assay [2] has as its target full-length β-N-acetylglucosaminidase from Rhizomucor miehei (RmNag) (Rhizomucor miehei). Kind of assay: SEC; size-exclusion chromatography of full-length RmNag; native molecular mass approx. 230 kDa; data not shown.

For “N-acetyltransferase C-terminal region (CTR) of RmNag (domain or fragment)”, the stoichiometry N in assay [1] was 2.
In turn, “full-length β-N-acetylglucosaminidase from Rhizomucor miehei (RmNag) (enzyme)” returned a stoichiometry N in assay [2] of 2.

These data come from publication PMC4680927.
